# Test results taken from US20190248902A1 (published 2019).
# Substitutions are numbered along the chain they refer to.
# B1: 6G7 (antibody, V domains shown)
# VH: QVQLVESGGGVVQPGRSLRLSCAASGFTFSSYGMHWVRQTPGKGLEWVAIISYVGKNKYYADSVKGRFTISRDNSKNTLYLQMNSLRAEDTAVYYCARRGNSYGGYGMDVWGQGTTVTVSS
# VL: DIQMTQSPSSRSASVGDRVTITCQASQDISNYLNWCQQKPGKALKLLIYDASTLETGVPSRFSGSGSGTDFTFTISSVQPEDIATYYCQQYDNVPITFGQGTRLEIK
# B2: 194C10 (antibody, V domains shown)
# VH: QVQLQQWGAGLLKPSETLSLTCAVSGGSFRYYYWSWIRQPPGKGLEWFGEINHSGSTNYNPSLKSRVTISIDTSKNQFSLKLRSVTAADTAVYYCARDYGAFDIWGQGTMVTVSS
# VL: EIVLTQSPGTLSLSPGERATLSCRASPSVNSGYLAWYQQKPGQTPRLLIFGASSRATGIPDRFSASGSGADFTLTISRLEPEDFAVYFCQQYESSPWTFGQGTKVEIK
# notes: hybridoma mAb
# B3: 5E5 (antibody, V domains shown)
# VH: QVQLVESGGGVVQPGRSLRLSCAASGFTFSNYVMHWVRQAPGKGLEWVAVIWYDGSNKYYADSVKGRFTISRDNSKNTLYLQMNSLRAEDTAVYYCTREVYSSGWYDYGMDVWGQGTTVTVSS
# VL: DIQMTQSPSSLSASVGDRVTITCRASQGIRNDLGWYQQKPGKAPKRLIYAASSLQSGVPSRFSGSGSGTEFTLTISSLQPEDFATYYCLQHYSYPRTFGQGTKVEVK
# B4: 202A3 (antibody, V domains shown)
# VH: QVQLEQSGAEVKKPGASVKVSCKASGYTFTSYDINWVRQATGQGLEWLGWMNPKRGNTGYAQKFQGRVTMTRNTSISTAHMELSSLRSEDTAVYYCARGRYSREDYYYYYDMDVWGQGTTVTVSS
# VL: B3 VL with T5S, Y49C, S53R, T85I, Y92H, S93D, R96F, Q100P, E105D, V106I
# notes: hybridoma mAb
# B5: 7F4 (antibody, V domains shown)
# VH: QLQLQESGPGLVKPSETLSLTCTVSGGSISRSSYYWGWIRQPPGKGLEWIGNIYYSGATYYNPSLKSRVTISVDTSTNQFSLKLSSVTAADTAVYYCARHSGSWSLDYWGQGTLVTVSS
# VL: B3 VL with A25T, S53N, Y92S, S93A, R96L, Q100G, V106I
# B6: 7G4 (antibody, V domains shown)
# VH: B3 VH with S30N, N84T, T97A, V100K, G104N
# VL: B3 VL with K39R, F83S, Q90H, H91Q, V106I
# B7: 198D2 (antibody, V domains shown)
# VH: QVQLVESGGGVVQPGRSLRLSCAASGFTFRSYGMHWVRQAPGKGLEWVAVIIYDGSYKYYADSVKGRFTISRDNSKNTLYLQMNSLRAEDTAVYYCARTYSGGMDVWGQGTTVTVSS
# VL: QSVLTQPPSVSAAPGQKVTISCSGSSSNIGSNYVSWYQQLPGTAPKVLIYDNNKRPSGIPDRFSGSKSGTSATLGITGLQTGDEADYYCGTWDSRLNVGVFGGGTKLTVL
# notes: hybridoma mAb
# B8: 196F4 (antibody, V domains shown)
# VH: EVQLLESGGGLVQPGGSLRFSCAASGFTFSSCAMTWVRQAPGKGLEWVSAISGSGGSTYYADSVKGRFTISRDNSKNTLYLQMNSLRAEDTAVYYCAKVGGLTGSYYYYGMDVWGQGTTVTVSS
# VL: DFQMIQSPSSLSASVGDRVTITCRASQRIHSYLNWYQQKPGKAPKLLIYTASSLQGGVPSRFSGSGSGTDFTLTISSLQPEDFATYYCQQSYGSPLTFGGGTKVEIK
# notes: hybridoma mAb
# B9: 52D10 (antibody, V domains shown)
# VH: QVQLVESGGGVVQPGRSLRLSCAASGFTFSSYGMHWVRQAPGKGLEWVALIWYDGSNKYHADSVKGRFTISRDNSKNTLYLQMNSLRAEDTAVYYCARRYSSSWSGGMDVWGQGTTVTVSS
# VL: DVMMTQIPLSLSVTPGQPASISCKSSQSLLHSEGKTYLYWYLQKPGQPPQLLIFEVSNRVSGVPDRFSGRGSGTDFTLKISRVEAEDVGVYYCMQSIQYPITFGQGTRLEIK
# notes: hybridoma mAb
# B10: 226F9 (antibody, V domains shown)
# VH: QVQLVQSGAEVKKPGASVKVSCKASGYTFTGYYIHWVRQAPGQGLEWMGWINPYSGDTKYAQKFQGRVTMTRATSISTAYMELSRLRFDDTAVFYCARDWGGYSSYYYGMDVWGQGTTVTVSS
# VL: DIVMTQTPLSLSVTPGQPASISCKSSQSLLHSDGKTFLYWYLQKPGQPPQLLIYEISNRFSGVPDRFSGSGSGTDFTLKISRVEAEDVGIYYCMQSTQLPRTFGQGTKVEIK
# notes: hybridoma mAb
# B11: 176H4 (antibody, V domains shown)
# VH: QVQLVESGGGVVQPGRSLRLSCAASGFTFSSYGMHWVRQAPGKGLEWVAIIWYDGSYKYYADSVKGRFTISRDNSKNTLYLQMSSLRAEDTAVYYCARDAHDFWSGYFAYWGQGALVTVSS
# VL: B10 VL with S32G, F37Y, I56V, T97I, L99I, R101W, K108R
# notes: hybridoma mAb
# B12: 227F2 (antibody, V domains shown)
# VH: B10 VH with Q3H, A73D
# VL: B10 VL
# notes: hybridoma mAb
# B13: 227C1 (antibody, V domains shown)
# VH: B10 VH with I34T, D57G, K59N, A73D, F94Y
# VL: B10 VL
# notes: hybridoma mAb
# B14: 224G1 (antibody, V domains shown)
# VH: B10 VH with K59N, A73D
# VL: B10 VL with S26G, Y39S, Y91F
# notes: hybridoma mAb
# B15: 65C12 (antibody, V domains shown)
# VH: EVQLVESGGGLVKPGGSLRLSCAASGFTFRSFSLNWVRQAPGKGLEWVSSISSSSSYIYYADSVKGRFTISRDNAKNSLYLQMNSLRAEDTAVYYCARDAYSHYWGQGTLVTVSS
# VL: EIVMTQSPATLSVFPGEGATLSCRASQSVSINLAWYQQKPGQAPRLLIYGASTRATGIPARFNASGSGTEFTLSISSLQSENFAVYYCQQYNTWPLTFGGGTKVEIK
# notes: hybridoma mAb
# Columns and labels:
# human ASGR-1 [1] = molecular target: T1, human ASGR-1 (human, UniProt P07306 1-291); experiment: FACS ligand blocking on CHO-S ASGR-1 cells; labelled ligand biotin-GalNAc-PAA (synthetic sugar)
# T1 construct: Stably expressed on CHO-S cells (CHO-S:huASGR-1); The method text says human or mouse ASGR-1 cells were used; also called huASGR-1; hASGR-1
# T1 sequence: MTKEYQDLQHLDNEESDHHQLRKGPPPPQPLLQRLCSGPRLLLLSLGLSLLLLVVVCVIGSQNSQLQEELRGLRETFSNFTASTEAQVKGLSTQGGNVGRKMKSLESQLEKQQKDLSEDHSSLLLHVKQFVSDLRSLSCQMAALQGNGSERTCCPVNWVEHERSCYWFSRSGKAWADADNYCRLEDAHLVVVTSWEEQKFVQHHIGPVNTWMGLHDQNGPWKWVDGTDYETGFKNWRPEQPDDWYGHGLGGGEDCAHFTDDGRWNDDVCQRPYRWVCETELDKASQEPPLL
# Procedure: (§1) All ASGR-1 antibodies that bound either human or mouse ASGR-1 stable CHO—S cells were then tested for ligand blocking using both a protein ligand and a synthetic sugar ligand. The method in brief is as follows: first, 20 ul of either CHO-Shuman or mouse ASGR-1 cells were added to wells of a 384 well plate (30 k cells/well) followed by spin and discarding the supernatant. Second, 10 ul of the antibodies (either purified from hybridoma supernatants or made recombinantly) were added in duplicate to the cells in a dilution series (200 nM top concentration, 1:2 serial dilution, 11 point curve) and were incubated for 30 min at 4 C. […] After 30 min incubation at 4C, the plate was spun and washed twice with FACS buffer+1 mM CaCl2 followed by the detection streptavidin-AF647 at 1:1000 dilution. After 30 min at 4C, the cells were spun and washed once and then 60 ul PI added at 1:1000 dilution and the plates delivered to a core flow cytometry facility. The plates were read and processed similarly to the cell binding method except the signal now represents an inhibition curve and typically decreases a function of increasing antibody concentration. IC50 nM potency and % Inhibition were reported. […] Differences in the ability of antibodies to block these two ligands could occur as a result of differences in, for example, avidity stemming from differences in the number and/or orientation of the ASGR binding terminal sugar residues of each ligand, steric hindrance between antibody and each ligand, and/or changes in the conformation of ASGR induced by antibody binding that selectively alters the binding of each ligand.
# human ASGR-1 [2] = molecular target: T1, human ASGR-1; experiment: FACS ligand blocking on CHO-S ASGR-1 cells; competitor biotinylated asialofetuin
# Procedure: as §1
# [3] = molecular target: T2, recombinant, soluble human ASGR-1 (human, UniProt P07306 62-291); experiment: Octet BLI dissociation, pH 7.4 minus calcium
# T2 construct: biotinylated in the binning assay; also called soluble huASGR-1; Soluble ASGR-1 (Amgen)
# T2 sequence: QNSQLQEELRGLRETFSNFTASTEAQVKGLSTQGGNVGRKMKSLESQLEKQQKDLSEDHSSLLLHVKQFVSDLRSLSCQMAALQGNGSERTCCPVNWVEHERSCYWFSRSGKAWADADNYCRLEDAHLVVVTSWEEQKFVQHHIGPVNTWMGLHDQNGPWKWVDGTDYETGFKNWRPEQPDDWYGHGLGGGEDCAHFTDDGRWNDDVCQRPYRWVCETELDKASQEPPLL
# Outline: (§2)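 Antibodies were captured on anti-human Fc biosensors, and soluble ASGR-1 (6 ug/ml) was associated for 2 min in Tris buffer containing 1 mM CaCl2 at pH 7.4, followed by 10 min dissociation under each test condition. The signal at the end of association was set as 100%. Percent ASGR-1 still bound after 1 min of dissociation was compared with the pH 7.4 plus calcium control, and >10% extra dissociation was scored as sensitive.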
# [4] = molecular target: T2, recombinant, soluble human ASGR-1; experiment: Octet BLI dissociation, pH 5.6 minus calcium
# Outline: as §2
# [5] = molecular target: T2, recombinant, soluble human ASGR-1; experiment: Octet BLI dissociation, pH 5.6 plus calcium
# Outline: as §2
Binder,% Inhibition (human ASGR-1 [1]) [%],IC50 (human ASGR-1 [1]) [nM],% Inhibition (human ASGR-1 [2]) [%],IC50 (human ASGR-1 [2]) [nM],% Change Compared to pH 7.4 + Calcium [3] [%],% Change Compared to pH 7.4 + Calcium [4] [%],% Change Compared to pH 7.4 + Calcium [5] [%]
B1,0,> 200,99,11,–,–,–
B2,–,–,–,–,2,16,10
B3,0,–,95,–,–,–,–
B4,–,–,–,–,-21,-23,-22
B5,30,0.24,99,2.6,–,–,–
B6,-30,20,96,14,–,–,–
B7,–,–,–,–,-8,-28,-30
B8,–,–,–,–,-8,-6,-5
B9,–,–,–,–,21,45,3
B10,–,–,–,–,100,77,51
B11,–,–,–,–,2,26,-4
B12,–,–,–,–,80,100,50
B13,–,–,–,–,100,73,54
B14,–,–,–,–,77,65,41
B15,–,–,–,–,13,23,0
